From patent US20260274955A1 (JANUX THERAPEUTICS, published 2026)

molecular target: anti-CD28 Fab (SEQ ID NOs: 202, 203); assay: phage ELISA, Fab on plate;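 note: ELISA of crude clonal phage supernatants on the plate, wells preloaded with CD28 antigen or only blocking buffer, captured phage read out via HRP-linked anti-M13 antibody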
Target sequence in this assay (VH, as listed by the source, chain 1 of 2): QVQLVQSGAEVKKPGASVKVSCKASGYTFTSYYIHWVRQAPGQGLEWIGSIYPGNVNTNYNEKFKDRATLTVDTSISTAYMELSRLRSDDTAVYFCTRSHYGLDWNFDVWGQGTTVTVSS
Target sequence in this assay (VL, as listed by the source, chain 2 of 2): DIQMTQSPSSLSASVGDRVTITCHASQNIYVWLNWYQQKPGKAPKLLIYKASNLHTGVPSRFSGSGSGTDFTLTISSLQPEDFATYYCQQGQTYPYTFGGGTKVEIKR
Experimental: After panning, phage infected bacteria were plated out and colonies picked into 96 well blocks. Clonal phage was then amplified and separated from bacterial cells via centrifugation.
Clonal phage were harvested as crude supernatants and screened via standard ELISAs. […] Prior to the addition of clonal phage, wells were incubated with blocking buffer and CD28 antigen or blocking buffer alone. Without washing or aspirating, clonal phage supernatants were then added to the wells and incubated for a short time. Wells were then washed followed by detection of bound phage using a horse radish conjugated anti-M13 antibody. Clonal phage of interest were then sent for sequence analysis.

Binder | Anti-CD28 Fab signal
LCSAGFLFQWSTCL [Phage-1133] | 1.41
LCAAGFMYEWPLCF [Phage-1143] | 1.4
PCSAGVTYAWLYCV [Phage-1140] | 1.41
MCAAGAAWAWPLCL [Phage-1141] | 1.4
TCSAGAHYPWPICL [Phage-1131] | 1.41
GCAAGASYPWPACL [Phage-1135] | 1.41
LCAAGAHYSWPACF [Phage-1139] | 1.41
RCAAGFHYSWPNCF [Phage-1134] | 1.41
TCSAGATYSWPACL [Phage-1137] | 1.41
TCAAGASWNWPACE [Phage-1138] | 1.41
TCAAGAQFAWPLCL [Phage-1132] | 1.41
SCSAGASLQLSQCF [Phage-1129] | 1.41
TCSAGATYTWPVCF [Phage-1201] | 1.13
TCSAGATYSWPLCF [Phage-1203] | 1.12
TCAAGATYSWPSCF [Phage-1204] | 1.1
PCAAGAMWPWPVCL [Phage-1136] | 1.41
TCAAGASYPWPLCV [Phage-1142] | 1.4
RCSFRFITLAEACV [Phage-1130] | 1.41

molecular target: T1, anti-CD28 Fab (SEQ ID NOs: 202, 203); assay: phage ELISA on captured Fab, wells pre-incubated with CD28 antigen (competitor);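 note: clonal phage ELISA with wells pretreated with CD28 plus blocking buffer before phage addition, bound phage detected by HRP-linked anti-M13 antibody, reference wells got blocking buffer only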
T1 construct: biotinylated and captured on neutravidin coated plates in the phage ELISA
T1 sequence (VH, as listed by the source, chain 1 of 2): as the sequence (VH, as listed by the source, chain 1 of 2) above
T1 sequence (VL, as listed by the source, chain 2 of 2): as the sequence (VL, as listed by the source, chain 2 of 2) above
Experimental: (§1) Clonal phage were harvested as crude supernatants and screened via standard ELISAs. […] Prior to the addition of clonal phage, wells were incubated with blocking buffer and CD28 antigen or blocking buffer alone. Without washing or aspirating, clonal phage supernatants were then added to the wells and incubated for a short time. Wells were then washed followed by detection of bound phage using a horse radish conjugated anti-M13 antibody.

Binder | Anti-CD28 Fab signal in the presence of CD28
YCDGHAEEYMAKCL (on phage, pIII fusion) [Phage-588] | 0.06
YCEGHSQEYMAKCL (on phage, pIII fusion) [Phage-596] | 0.06
YCDGHAWQYMWKCL (on phage, pIII fusion) [Phage-554] | 0.07
YCEGHAVEYMAKCL (on phage, pIII fusion) [Phage-593] | 0.07
YCAGHLPQYIQKCL (on phage, pIII fusion) [Phage-591] | 0.07
YCDGHLPIYQAKCL (on phage, pIII fusion) [Phage-571] | 0.1
YCDGHLAIYMWKCL (on phage, pIII fusion) [Phage-587] | 0.09
YCDGHKAEYMQKCL (on phage, pIII fusion) [Phage-565] | 0.06
YCDGHLQIYMGKCL (on phage, pIII fusion) [Phage-552] | 0.06
YCDGHHKEYLLKCL (on phage, pIII fusion) [Phage-568] | 0.06
YCAGHLPVYMDKCL (on phage, pIII fusion) [Phage-557] | 0.08
YCEGHLAIYQKKCL (on phage, pIII fusion) [Phage-592] | 0.06
YCSGHLPQYLEKCL (on phage, pIII fusion) [Phage-567] | 0.31
YCEGHSAMYIWKCL (on phage, pIII fusion) [Phage-558] | 0.1
YCDGHLAVYMAKCL (on phage, pIII fusion) [Phage-556] | 0.08
YCDGHLPEYLAKCL (on phage, pIII fusion) [Phage-555] | 0.06
YCQGHIEPYLAKCL (on phage, pIII fusion) [Phage-586] | 0.05
YCEGHLPQYMTKCI (on phage, pIII fusion) [Phage-590] | 0.08
YCDGHLALHMKKCL (on phage, pIII fusion) [Phage-569] | 0.08
YCDGHLPEYMNQCL (on phage, pIII fusion) [Phage-597] | 0.07
YCDGHSEQYIAKCL (on phage, pIII fusion) [Phage-572] | 0.08
YCEGHIMQYMAQCL (on phage, pIII fusion) [Phage-570] | 0.06
YCAGHLEEYMWKCL (on phage, pIII fusion) [Phage-559] | 0.08
YCDGHNFQYMEKCL (on phage, pIII fusion) [Phage-598] | 0.06
YCDGHSVEYLDKCL (on phage, pIII fusion) [Phage-553] | 0.08

molecular target: T1, anti-CD28 Fab (SEQ ID NOs: 202, 203); assay: phage ELISA on captured Fab;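 note: ELISA with clonal phage supernatants added to wells preincubated with CD28 antigen or with blocking buffer only, bound phage detected by HRP-conjugated anti-M13 antibody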
Experimental: as §1

Binder | Anti-CD28 Fab (SEQ ID NOs: 202, 203) signal
YCDGHAEEYMAKCL (on phage, pIII fusion) [Phage-588] | 1.45
YCEGHSQEYMAKCL (on phage, pIII fusion) [Phage-596] | 1.44
YCDGHAWQYMWKCL (on phage, pIII fusion) [Phage-554] | 1.53
YCEGHAVEYMAKCL (on phage, pIII fusion) [Phage-593] | 1.44
YCAGHLPQYIQKCL (on phage, pIII fusion) [Phage-591] | 1.44
YCDGHLPIYQAKCL (on phage, pIII fusion) [Phage-571] | 1.49
YCDGHLAIYMWKCL (on phage, pIII fusion) [Phage-587] | 1.45
YCDGHKAEYMQKCL (on phage, pIII fusion) [Phage-565] | 1.5
YCDGHLQIYMGKCL (on phage, pIII fusion) [Phage-552] | 1.53
YCDGHHKEYLLKCL (on phage, pIII fusion) [Phage-568] | 1.49
YCAGHLPVYMDKCL (on phage, pIII fusion) [Phage-557] | 1.52
YCEGHLAIYQKKCL (on phage, pIII fusion) [Phage-592] | 1.44
YCSGHLPQYLEKCL (on phage, pIII fusion) [Phage-567] | 1.5
YCEGHSAMYIWKCL (on phage, pIII fusion) [Phage-558] | 1.52
YCDGHLAVYMAKCL (on phage, pIII fusion) [Phage-556] | 1.52
YCDGHLPEYLAKCL (on phage, pIII fusion) [Phage-555] | 1.52
YCQGHIEPYLAKCL (on phage, pIII fusion) [Phage-586] | 1.46
YCEGHLPQYMTKCI (on phage, pIII fusion) [Phage-590] | 1.44
YCDGHLALHMKKCL (on phage, pIII fusion) [Phage-569] | 1.49
YCDGHLPEYMNQCL (on phage, pIII fusion) [Phage-597] | 1.44
YCDGHSEQYIAKCL (on phage, pIII fusion) [Phage-572] | 1.49
YCEGHIMQYMAQCL (on phage, pIII fusion) [Phage-570] | 1.49
YCAGHLEEYMWKCL (on phage, pIII fusion) [Phage-559] | 1.51
YCDGHNFQYMEKCL (on phage, pIII fusion) [Phage-598] | 1.44
YCDGHSVEYLDKCL (on phage, pIII fusion) [Phage-553] | 1.53
